Experiment: soluble on expression in E. coli; label from the status in PepcDB or PDB records

Sequence | soluble on expression in E. coli
MGSDKIHHHHHHVEKFDLENFPVSESAKNMIASVSDGFYDNSYVGKWLYEVMGQEYDTAREIAEDILNQLFPETATWGLMYHEIKWGLPVRENLPYEERRQLIYRKRDYRAPMTPYRMEGYLKTATGFDVRIADINDPGDYGFVAPHPNVFKAYFMGEGTLASKRARAMLNELKQSHTMFTMNDRTEIVSDNRNLEEMNLKKIIFHIAESFWYSDLLDGRKPLDGSSLLYPYMRYNLMLGFKYMLGGFTTPTDADLQKVKFRAEQKTENDVKAGAIRIASDIIFWNTHLLDGSWDLDGSHRLDVTRGYQLGVAIVAMVACAYNKVTDSMKVRSTYGLRSSSDARAAIRSEFEADFWNTVYLDGKLLLDGNAMLEHRGGNKRLEAAVTHHMGIEREDMDVEAQVITKTRNYWFLDGSNALDGKKNLNSIYRKEYIQ | not soluble
MGSDKIHHHHHHMHEAVARMLAKYEPKSVDDSVRALREIIQEVALLGLWRSKFFEHAAFYGGTALRILYGLDRFSENLDFSLLEPSPDFNLARYTASLEEELSAFGFNVRVEMVGKAVESAVQSAFLKANTRNELLVIETGGELAGQVAAGQVLKVKIEVDTDPPTGFTTSTRYLLQPIPFAVRSYSLPDLFAGKMHALLFRRWKNRVKGRDWYDFVWYAANHPQLNLAHLEQRMRQTGHWSGDLPLSAAAFRELLSDSIDRLDVDQARNDVAPFVKDQQALALWSHDFFRDVARRVQTDEG | not soluble
MWAQKTLQLKARSRGFHLITDEIEQQLPQIHELSVGLLHLFIQHTSASLTLNENADPTVRMDMEAHFNKFVQERAPYYQHTYEGDDDMPAHIKASLLGSSVTIPIQNGRLALGTWQGIYLGEHRDFGGSRRIIATINGELEHHHHHH | soluble
MAGDPMRRPHMSDATLVYDDDCGFCTWWADFIGERSDLEIVGFSALGDDLLERLPDDYESCSHLVTEEDVYSCGKSIETALTYTELGKPARPLVSFLRQFEDYERFRERAYRQVADNRSKWGKVMSKTPPARRDNSDLEHHHHHH | not soluble
MSKFAMVFPGQGSQSLGMLADLAAQFPIVEATFSEASSVLGYDLWQLVQQGPAEELNKTWQTQPALLTASVAIWRIWQHQGGKLPSLMAGHSLGEYSALVCAGVLDFKQAVSLVELRGKLMQEAVPEGTGAMYAIIGLDNESIAKACEESAQGQVVSPVNFNSPGQVVIAGNKDAVERAGAACKAAGAKRALPLPVSVPSHCALMKPAADKLAVALEKIDFQEPLFPVVNNVDVKAEVSPVAIRSALVRQLYNPVRWTESVEFIAAEGVELLLEIGPGKVLTGLTKRIVDSLAAAAVNDVVTLNSALEH | not soluble
MGSDKIHHHHHHMRLKISLLSPADSFEIDLNHSYHLASAIYRAIERADPSLSIELHKPDVPKFFTFSKLFIPKRKFRIEGEKMVSDCEEAYFFFSTLRNEVAASLVEGLLSKPEIRICGVDFIVSEVSVLPEREVKGREKFVTLSPIYASTSVGENGRRRIFDLYPKDSKFYEVILQNLVKKYVLYYKSAPENLDFHMKPLNVKAKRIRLKDTFHRCVEMVFKAEGSPELLDVGYKAGFGSKNSMGFGMVKVV | not soluble
MGSDKIHHHHHHMQKHARVIYNPTSGREIIKKNLADVLSILEQAGYVTSAHATTAEPDDAKHAAEEAVRNRFDLVVAAGGDGTINEVINGIAEKEYRPKVGIIPTGTTNDFARALHVPRDVIKATKIIAAGQSVAMDIGKANETYFINIGGGGRLTELTYDVPSRLKTMLGQLAYYLKGIEMLPSLKATKVKVEYDQGVFEGEVMFFLLGLTNSIGGFEKIAPDAKLDDGKFSLIIVKKVNLAEFIRLVTLALRGDHIKEPNVIYVKSEKVIVNSEDKMLINLDGELGGETPMEFRNLRQHIEFFASVDDIPATDLFIKENS | not soluble
MLEIVSEELRHYQEQKLIEYRNKNQLAPKGGIVFAGDSLIEFFPLKKAFGSCLPIINRGIAGIDSQWLLRHFSVQITDLEPKHIFLLIGCNDIGLGYDKCHIVKTIVELISQIRSHCVYSQIYLLSLLPVSNNPRYQKTVKIRTNAMIDAINKDLAMIPTVEFINLNTCLKDEKGGLSDENTLDGLHLNFPAYAKLAEIIKSYI | not soluble
MGSSHHHHHHSSGLVPRGSHMSQDVPGNLLDEIRILRSPKGYLYAGLPKFRALFGRDSIISSIQLIDLFPDIAQNTVIYLKDLQGRKLDYSIGEYPGKILHEYYDDEKIFLDRKRSIPWLNSRINYFSVDSTPLFILLIKNLFLRNLIDIEQFKDSIMMAMQFLIAYSSSDGLITYDKALLGAGLMSQSWRDGVGDIMDRLKSPVATVGVQGYFYESADFVLNLFPDSLIEESLPDLKDFYSKMREILENKFWLEETGYYGLAVDGDGVIEQAATSDPGHLIGSGILTRSRERDVIDRLFESDLLTDYGIRTLSAKDPRFDPKAYQRGSIWPQDNWIIADGIKRRGYLKEYRELRERLIAAYEYYGRMPEYFGVDRYGKIMDLSKLRIKPCYPQAWSTGAIINFVTFK | soluble
HGSSTVDELTAAFTGGAATGEGGLTLTAPEIAENGNTVPIEVKAPGAVAIMLLAAGNPEPAVATFNFGPAAADQRAATRIRLAQTQDVIALAKMADGSVVKAQTTVKVTIGGCGG | soluble
MNNLLRCHQVCKTYQEGELQTQVLKGVSFELKRGELVSIIGSSGSGKSTLLHILGALDDASEGQVEFLGQSLHQLSSNKQAKIRNQHLGFVYQFHHLLADFSALENVAMPLLIGGMNVAKAKAKAQSLLERVGLGHRVAHRPSELSGGERQRVAIARALVNKPDLVLADEPTGNLDHKTALSIYDLMRELNRESGTAFLVVTHDGELAAKMDRHMHMKDGLLTDITGA | not soluble
MKQFKIRSVLQSIALLVLAGTAAAEPKPEKITHGRFEQIPVLRPDGEPQRVVIWFSDAGHVDQRTRQAEILRQDGAMVALVDTTHLYKVLAADSNHCTFSVGDVENLSRYLQAYYRDKTYRLPLLVGDGDGSGLVYAVAAQATENILAGVVSDGLCPVVVPTQAVCGAGVASDQHLKPAPVAAPLLVMTVSSAHCPAQLTSGFVRKVALGREIRLAASADLLPRLRAALRVLGAQKGVSLPPPPADLDGLPVVEVPSKAQKKSDTFAIFVSGDGGWAEIDKKVAGHLADADIPVVGLDSLRYFWSERTPEGFAKDLDRIARFYAHHWKRNRLLLVGFSQGADVLPAAINKLSPNTRQIIRMTALLSLGKYAHYEFHVSNWISTDDEGIPIAPDMVKLRSTRTVCIYGVDDQETLCPSLPQQNRRVALPGTHHFNGDYETVAKTILAQMEAAPLEHHHHHH | not soluble
MGSDKIHHHHHHMNILVSNGEEHVNQTIASFFHQRGDRPILLFTEKEKHLEYVAGHPEQEAVLCTTYEEETLAAMVKEAFEEEAIDVLVHGNEMVNEAELLERDPSSLNEVVQKALYHLFLLNKVVVRDMVKRKQGKIIFPLFYDPLYYAGYASSPILNQAKLSLMKCMSRELGAFKINVNSITFGYYNDQFTREEKKATKSQVEIFCLKPKLPEIEEYVHSIGLLVDPSASLIGGENLHVGAGIETGI | not soluble
MYLPIFCIFLSVVDSLRILQIVPGFTNSHVLFNYRLAETLRFLGHDVKMWTQMEMAMLDTGNNKLPEGVSEYRIPIHFTDTLKTEGLKVFQSMMFESGDAHDLWWTGQEFKDMRVEACEQMLRHDESVYEDFRKDGFDVAIAHFHDLCPLAIAKKMNVKRVIWITHGTSIYEFSAVQLGLRTIPSTIPHPLSSAGFSQLFLDRVQNTLWHLSLLDFVNLPQNLLVDENLFYREFVGADQDDLWDLAKTTVPSLLINGDRMLDFPRPLPIHIAFSGELGVSKGKKLVMEKWLEDIIEKPSDGLIVFSLGTVSNTTNMPAQMINSFLGAFGKLKTYTILWRMEKSVAGAEKYENLHLVKWLPQKDIMRHPKMKLMIAHGGYNSFLEAAQAGIPAVLMPLFADQKINAKRAQRYGMATVLDKLDLTINNVYGAIKEALKPEYSTNAKKLSAMLSDQVARKPYSALRYSLKLATSPKPSLFTLKSQHLSFLEFHNLDIFSIVLLTAFIVCF | not soluble
MQSETTSKHTDILTSLQLSLTPRRDPTFEETTTDEQTSVQIALSPCLNATIASSKYSLDDLDVSAQYLWDTAADNLIYTTSNAREIPIRTRPTTFLTKRMTEGLQVDVTGAPTSAWIAHPLTFEVIYHHLANILCATPVFYVPHPQLLIAVASHIVSPQLESWLSTFSTPLVKDALIYHEGFPAHIKSSAWQQPLHHMSSDQLSA | not soluble
AIASETISRVRQLTEKGAKMEGWDDCWKAGLTPWDRGSSLPVLCELCKEDALPKGYALVPGCGRGYDVLTLASESRVAIGLDCSEEAKKQAEQVRKFSVVDNCQLKEIEAEGF | soluble
MVRESIPKEGENIKIQSYKHDGKIHRVWSETTILKGTDHVVIGGNDHTLVTESDGRTWITREPAIVYFHSEYWFNVICMFREDGIYYYCNLSSPFVCDEEALKYIDYDLDIKVYPNGKYHLLDEDEYEQHMNQMNYPHDIDIILRRNVDILQQWIEQKKGPFAPDFIKVWKERYKKIRQY | soluble
MQSVTPTSQYLKALNEGSHQPDDVQKEAVSRLEIIYQELINSRPPAPRTSGLMARVGKLWGKREDTKHTPVRGLYMWGGVGRGKTWLMDLFYQSLPGERKQRLHFHRFMLRVHEELTALQGQTDPLEIIADRFKAETDVLCFDEFFVSDITDAMLLGGLMKALFTRGITLVATSNIPPDELYRNGLQRARFLPAIDAIKQHCDVMNVDAGVDYRLRTLTQAHLWLSPLNDETRAQMDKLWLALAGVKRENSPTLEINHRPLATMGVENQTLAVSFTTLCVDARSQHDYIALSRLFHTVMLFDVPVMTRLMESEARRFIALVDEFYERHVKLVVSAEVPLYEIYQGERLKFEFQRCLSRLQEMQSEEYLKLEHHHHHH | not soluble
MSNKGGGQRSGEIGVDELWTVYKSFIRETGLARQHLDSFNRLVTQEIQKIIDSIREVRPQWRIYAGRRRYRRGRFEEHEIHLPDVKIVFGKARFKEPMAREVIESFDRRVTPFECRVRGITYSAPLMVEMTIVQDNMIEKTREVKIADFPVMVKSVLDPLSKYDEETVIEMGEDPGDPGGYFIINGSEKVIVAQEDLAVNRIIVNKSTAATARITHTAKAVSTVLGLRRQAIVDRMSDGTLEASLSRLRYRIPLVVLLRALGLEKDMEIMLAVSADPDVQREMLPSLEKGRALAPTKEDALKYLGNRIAPGQPLDVRIRRAEEFLDTQLLPHLGNRPEDRIKKAYFLAEMANRVLQLYLGKRGEDDKDFLGNKRLRLAGDLIAELFRESLEALANTMAQKLEEQLAERRQIRLDFLVRPTIISDRLKGAIATGNWGQDRTGISQQLDRTNWISLLSHLRRVISPLSRGQAHFEARDLHGSHWGRYCPFETPEGINCGLVKNLALSAYISVGVDESVVEEILVKDLGVAPLERILEEAKQAGEPPEIMLKGTKVFINGRPLGYHPNGAELARKIRELRRSDKLEVERPWEVSVYHLREGEIDELYVNTDSGRLMRPVVVVENGEPKLTREHVEKLSRGEITFWDLVKQGVVEMLDPEEEQNALIAELPWEVTKEHTHMELWVPAIVGVAAATIGYLEHNQSPRNTYQAAMAKQALGVYALNYRIRLDSHSYLLQYPQVPIVQTRMLDIMGYNERPAGQNMVVAIMSYTGYNIEDALIFNKGSIDMGLARAYFFRVYTGIENEYPGGERDRITLPKPDEVYDYRGAAAYAKLEADGIVAPETEVEGGEILIGRVSPPRFLGEGRVISMATVRRRDTSIPMRLGEKGVVDMVVISTTVERNKLVKVRVRNLRIPEIGDKFASRHGQKGVIGMIFPRYDMPYTEEGIEPDVILNPHAIPSRMTVGQLLEEIAGKLGAIKGRFVDATPFFKEDIDGLRIELLKEGYDPNAREVMYDGRTGQIIEAPITIGVAYYQRLYHMVADKIHARATGRVHLLTRQPTEGKARQGGLRFGEMERDCLVGHGASMLLRDRMLDNSDAYVMYVCNTCGNIAWFNRRKKVLECPIHGEEGDIRPVKVPYAFKLLLQEITSMMIKPELKVADKISVIRKVVGDYT | soluble

Source: the DeepSol protein solubility set
